Test [1] addresses mumps postfusion F glycoprotein trimer (unstabilized 476-GCN4) (mumps virus). Put plainly: negative-stain EM; purified glycoprotein designs alone, 2D class averages.
In test [2] the target is prefusion-stabilized mumps fusion (F) glycoprotein trimer, genotype G (V206C-A223C with 476-GCN4 and 101KRF-101GGG) (mumps virus, genotype G). The test is described as above.
Test [3] has the same target. The test can be described thus: crystal structure.

In the case of “mumps postfusion F glycoprotein trimer (unstabilized 476-GCN4)”, the stoichiometry N in test [1] is 3. For “prefusion-stabilized mumps fusion (F) glycoprotein trimer, genotype G (V206C-A223C with 476-GCN4 and 101KRF-101GGG)”, the stoichiometry N in test [2] and in test [3] was 3 each time.

Source of the values: article PMC11588112.
